From the DeepSol protein solubility set

Test: soluble on expression in E. coli; label from the status in PepcDB or PDB records

| Sequence | soluble on expression in E. coli |
| --- | --- |
| MSDLKYTVTADVLNVRSGAGTGHSVISKVKQGQVLQVIGQENGWFKVTVNGQTGYVSGDFVTTGGKTGTTVQQGTGTYTVNVSSLNVRTGPSTSHTVLGSVNKGKTVQVVSEVQDWFKINFNGGTGYVSKDFVTKGGSALEHHHHHH | soluble |
| MSLVKTRILIISDTHGSKPKPKSDNSPSTEDELNQEDVTKVITGWRDPLPEADVVIHCGDLTKRTTIPEFEQTFSVLRSIKAPLKLAIAGNHDTALDEEHWVNKYGGSKETIDKVKKIVREAETDGVKYLPEGVHEFTLANGALLKVYASPWTPAYGGWAFQYKNGHDFNIPPGMDVAVTHGPPRGILDFAGRAGTHAGCPQLLAAVARAKPKIHCFGHIHEAWGMHHVTWDGDEIDLARSQYRGLKGLRPNRVTQGKETARMTREKLIEMSKQRAVRLDLTQGINRSIAGKQTLFVNAAIMSIRYRPVQLPWIIDVDLKAREGHHHHHH | soluble |
| MVELCELHMMPEEDQWPDDIDARIAALNFCGEDSMLFESVDPSVSTDSLDSQQFRERCQMKKEDFQLAFADSGHWQSGINDNLTTWGRIRTSEPLDERTASAPDVWNVKRSDSARSPNRPNSLIANFVSGDATRFVDVNDNEIREANEEIIRKDRWRRDSARRCSSGGQNQKRTFADILEKNVTAPTSMAITSSDNEKPPKLDFLAMHHEMPSLCESFTASFRDAIIKMQKCEPLPSITSTNDFPLFFQEDSPDSGLGCSGPSHIEDWQSLSVLLPKHVAEACSFFKSNTQLLTSSTSKTAPQTSTNIVSNCIDRRISGISASANEACRTCYRVRRRIHPPVWAQTAQSKTVLCDCASTPTDTNFSFAPTTSTTRHQLRAKELSIVGLPIYAAKRTLVENVVEGVAAISRGDGSDLLVIAMRCLIEDGLQENVSAWTMIQTVTSKGPATKDVHSIVKQLEECSKTDNVKVEIFFEELIRENSLDCWLCYIVLKEKVLKTLYSENAFLLSASSEYRTLLWRMVDSLSLLPVIEARSDSVHQQFKSMQQWGGASRIASDSRVPKSSSFPARLSTAPSRRSRIPLSTSRISISSTTSTPRSARSPSTTSRIRVASIMGDFTLANFSLSDGEKVSVLSTRGGLARCVRLTTSHSKINNGVIPIEHLLFQ | not soluble |
| MDFPRIIMARNPIYFESIQIGEKIEGLPRTVTETDIWTFAYLTADFFPLHTDVEFAKKTIFGKPIAQGMLVLSIALGMVDQVILSNYDVSSVIAFFGIKDVRFLRPVFIGDTIAASAEVVEKQDFDEKSGVVTYKLEVKNQRGELVLTALYSALIRKTPSK | soluble |
| MIDERLKKDLAILPISTVRALTNLSDRQIRYYESQDLLTTKRGKGGQRRFSLNDVERLIEIRMMMESGDSLKDIHNLYETHRVSNRRNEKTEFVHSLENEFLKIGRLEKH | not soluble |
| MTERLLVGVIVGSHGVRGLVRVKSFTQDEMALCDYGPLSDETGTRRFAVEVRNQAKGVVICQIPGVSDRTAADALKGTRLFLDRAALPADALEEDEYYHADLIGLPVDLVDGGRLGVVHSVHDFGAGDMLEVTLAQGRRSVLLPFTKAVVPLVDVKAGRLVADPPLGLLDDTRPPAGVEGEVEEDPGVGIDEDGDGKGGASLEHHHHHH | soluble |
| HVYILGKIPSPLTLIKAFADVRPSFVIMVPLIIEKLYHKAIAPKIKTPLIKFLLRLPVLKKVIHKSIRSKLIESFGGNFRQIIIGGAALNDEVAHFLYRIGFPLTVG | not soluble |
| MIDVLLGADDGSLAFVPSEFSCSPGCKIVFKNNAGFPHNIVFDEDSIPSGVDASKISMSEEDLLNAKGETFEVALSNKGEYSFYCSPHQGAGMVGKVTVN | soluble |
| MLNEFDQYLHERYLSGKARKDRWYWNNSIQRGRSTAVRENWQWKPAVAYCRYADDFVLIVKGTKAQAEAIREECRGVLEGSLKLRLNMDKTKITHVNDGFIFLGHRIIRKRSRYGEMRVVSTIPQEKARNFAASLTALLSGNYSESKVDMAEQLNRKLKGWAMFYQFVDFKAKVFSYIDRVVFWKLAHWLARKYRTGIASLMRWWCKSPKPGQSKTWVLFGKTNHGKLSGEILYRLVGQGKKLFRWRLPEGNPYLRTETRNTYTSRFTEVAMAFASI | not soluble |
| MRTAEIREKFLSFFEGKGHLRLPSFSLIPEDDPSLLFTSAGMAPLKPYFLGAKPIFGGREWRRVTTCQECLRVGDIENVGRTSRHNTYFEMLGNFSFGDYFKKEAILWAWEFLTEHLKLDPGRLWVTVFEDDDEAYEIWRDLVGVPEERIGRFGEDENYWPGGAITHGPNGPSGPCSEIFYDRGPAYGTPDETGPNTGSGDRFVEIWNLVFTQYDRQGPIPGPGILKPLPQKNIDTGMGLYRVAAILQDVEDFYRTDTFFPIIQEVARMSGRPYEGKTSVSHRVIADHVRAVVAALSDGATFSNTGRGYVIRRLLRRALRHGYLLGLSDPFLHRLAPLVAELLGDFYPEMRENLPAVEKQIRLEEERFLETLEGGLKRLDALLSGLKPGEVLPGKEAFRLYDTYGFPLDLTVEIAAERGYGVDTEGFQKAMEEQQSRSRAAMAFEREIFKKGAQVLEELYAERGATEFLGYNALEAEAEVLALLAGDQSLLEAGPGTEVQVVLDKTPFYAEGGGQIGDFGLLEWPGGRARVETTRKTERGIFLHKARVEEGVLRVGERVRAVVDPRRRDTERNHTATHLLHAALRAVLGPHVRQAGSLVAPDRLRFDFTHPEPLKPEELERVELLVNRWIMADFPVTWRYMPLEEARKEGAMALFGEKYGEVVRVVRVEGSPLEGLESKELCGGCHVRRTGEIGAFLIRSEEAVSAGVRRIEAVTGEEAIRFARGSLNRLKALAERLEVGEAALEERLEKLLAELKEKEREVESLKARLVQAALGGGGGASLEEKGGLRWTVAELPGLDAKALRQAADDLVARGADVALVLSGGQAVLKLSPKAQGMGLEAGALFRALAEKAGGRGGGKGALAQGGGLDPRKAREALPGLLP | soluble |
| MSSMVEVEHWNTLRLRIYIGENDKWEGRPLYKVIVEKLREMGIAGATVYRGIYGFGKKSRVHSSDVIRLSTDLPIIVEVVDRGHNIEKVVNVIKPMIKDGMITVEPTIVLWVGTQEEIKKFEEDAIAERQ | soluble |
| MRERLKGVIKKGVKVFFTDESGIHHDPSKVRRLGLYNVPVDYPSRKLNVLASIPLFDGVPCFMSTYSNVNFKIFAEFLRLFRNSGPIVLILDSAKFHKNAYVFSVASQLGITLLFLPPYSPDLNPIEFGGTWFVG | soluble |
| MTNIWKKNYETAKEVEEFVKKAYELGDVTELELLRAKRERSIAEVKLKVSRSKYEASLKELSRLLAKEVRDVEGELSAGVAMKEVNIDTLPVVLSIKKKIEAIDRQIQLEKALAKPKLATGFVVEESEEGYYGLRGSLTLELPLFYRREGEILQNIAMKKALKRRLEAELLKVKSRLESVKIRLETLQKELEKLEREVIPRAREELALAIKSYKLKAITLLELSDVRRKYYELLINRAELLLDIHRTYSEFIEIGGWRR | not soluble |
| MAHHHHHHMASEEPLNEIPGECPTPGDLGHAGWDVLHTAGAVYPYKPSPLQQEAFRSFLYSWSHVYACSHCSYHMRRYLKRNPPVVTDKLALNRYLCEFHNTVNKNIAKPVYNCDPMVVLRRWHPTFPDMEDQPTIEEQIAEQRRLEQAEAQKQKEKELQQKQVQTSSLGDMKASRERLVGRWRSEKSESHEYANNNPSSVGAFATGWSASSRQHENAGDAAAKSAPAPLAESREKRWWIFGKNGSGDKNAGFSSTTGTPSKVNSSGGGSNSGGMNGSLDDDEASVMAILKRLKACMVYCPDKDEKSNSA | not soluble |
| QVQLVQSGGGLVKPGGSLRLSCAASGFTFSSYAMSWVRQAPGKGLEWVSAISGSGGSTYYADSVKGRFTISRDNSKNTLYLQMSSLRAEDTAVYYCARPYLTYPQRRGPQNVSPFDNWGQGTMVTVSSASTKGPSVFPLAPSSKSTSGGTAALGCLVKDYFPEPVTVSWNSGALTSGVHTFPAVLQSSGLYSLSSVVTVPSSSLGTQTYICNVNHKPSNTKVDKKVEPKSCAAAHHHHHHGAAEQKLISEEDLNGAA | soluble |
| MSLNIYRAASVLIDEAGKNDFEISLLGKVNDLVYDTKNEYLYAVSQKGLLAKLNASNGDVIWRQSIAPETSQLNYNPVTNFIITVDKDYLYIWNSKNGILDRKIELADGKGKLFEVNKGFVYLNPHTRKFIELDLQASFSISIERDLQLDAISFLTYAEKNYVLFKRDGQFVLQALDHNYAVYGPETVLNVPENAQLLVTEKDVIIYSSNGVIYGIHVSMADISQLLIDEYKTFEWSSIPGKRHGYSITVDSQSTPVTYLFVIIDSEFVLIDEYIHEDTEALGYIHMEDNQTFSRVFAVANQIKFAPATVITIPNQLSRPVFRLFTFAEGEISAIVILDDGTFFSFSNTELVWKREEALAYAINPSILPTTLLTSYQKSIQDEENSSEGHHHHHH | soluble |
| MSLNGSMVYGDFIRNQEVRKRITKEELGIEEDEIPERVVVTPMPFNTQFPKNFEDTLTNLGIKVNRLKVEDQILRQFGGNLLLEKDGNRGFIAFIGRGLIDFTERIRILATVSRIKDILFIGTAGSLSNEILIGDLNIPKYAIPFENVSDFYADPTIAIPQADEKLLNEVYEYAEETGVKTHSTLHATLLFPYSETTEFLNYLLNIGVSTIDMEVSAFYKMSRFYGKRAVAVLRISDMPLIELHKQEELIKARREIAVNAVFRITLRFLKLEGHHHHHH | soluble |
| MAENVGSDSSEFESISSSQKSYLKNCPFAGHEALPTKSTDSDNTEVLGNQISPAVVKTPILSFSSPTSLDSINDDVFRTPPENASLSSAAESEPRVGVSEIKLQGGSNLTTPFSMAETTLVSSSPSLPAENVRVSESNLKSSSSTAKTTPVSASPSVNARVSESNLNSSSSTTPVSVSPSEKVRVFETTPVSASPSEKVRVFETKCHSDSGDSVPLSSSPPSVAADDVRVPAKHLDSDSSPPTAIGRTMVLVKQRISASDNSASSSASEGTKVSKTENSGEVLPFKEIIEALLRNSGEKLNERDDKVSYVEILKQCGLKFPK | soluble |
| MGSDKIHHHHHHMSYWIQISNNVRYSNTFEPVCQPGATREERSTTDPGGVGTVPAIHGASNLNIIPIMRARRASITWPSEGLTRVPYALFQDEGVYADEQDAIFRGPNWSYLCLEAEVPNQGDFRSTFVGDAPVVVTRDTDGEIYAFENRCAHRGAMVCLEDQGNARDFSCVYHAWTYSLQGDLVGVAFKDGIDGKGGMKPDFCTGDHGLRKLRVATLHGLVFGSFSDDVPPLDEYLGEEIVERIARVLENRKPVVLGRFTQMLPNNWKLYFENVKDSYHASILHLFFTTFQLNRLSQRGGIIVDPSGGHHVSYSAVDHAAEAAAQRKATSDYADQKIRSESEHRLEDTSVLAGVDEFGDGVTLQILSVFPGFVLQQIQNAIAVRQILPRGTQQTELNWTYLGFEDDTPELREMRLRQSNLVGPAGYVSMEDGCVGGFVQRGIEGAGDGRSVIEMGGDSAESSASRVTEASIRGFWKAYRNAMGY | not soluble |
| MGSDKIHHHHHHMINRKFINTVLAKRSTRSGLCQSATRTSRWLAVAIAILLANNSHADTSQTNVAAPAKTSACYLDGLDEQLQCGKITVLENPQLPDGKQIDIHFAILPAIKNTHPNEALLAIAGGPGQSAIENAAFFNRMLTKVRQQRDILLIDQRGTGKSNILSCDDDTTELLSMNDDDLDIIAMTEKCLGQIDADVSQYGSNTALTDFEAVREYLGYQKLHLYGISYGTRMAQLYMRHYPEALLTVTLDGVVPMQQSVVAIGDSIERGLNVLWRDCKSTPACQQQFPDLADEYNKVDQLLATAPISQQVRDPQTDELSEFLLTRSKFSGAIRMAMYMANIRALIPHAIHQAAQGNYQPILGIYTLTADSTGIAMGMHASVVCGEDIHRITDQMRKDAKESYISGNMLEGLEKTCQAWPIPQVDDNFSEPILSDIPTLLLSGELDPATPPNWGALAQEKLTKSKHFIAPYATHGVAGQSCGNDLVAQLVDQGSVKDINGECLQKDVRRSFYLNANTVEALPVIDTPTDIETTAPANTAADKE | not soluble |
